# Measured values reported in article PMC7498345 (Nucleic Acids Research, 2020).
# Where a chain is given by its changes, count along the chain named. Names and notes keep the numbering of the source.
# B1: C82A (protein, UniProt Q8IWS0 2-365, looked up, variant C82A)
# PHD finger protein 6: SSSVEQKKGPTRQRKCGFCKSNRDKECGQLLISENQKVAAHHKCMLFSSALVSSHSDNESLGGFSIEDVQKEIKRGTKLMASLCHCPGATIGCDVKTCHRTYHYHCALHDKAQIREKPSQGIYMVYCRKHKKTAHNSEADLEESFNEHELEPSSPKSKKKSRKGRPRKTNFKGLSEDTRSTSSHGTDEMESSSYRDRSPHRSSPSDTRPKCGFCHVGEEENEARGKLHIFNAKKAAAHYKCMLFSSGTVQLTTTSRAEFGDFDIKTVLQEIKRGKRMKCTLCSQPGATIGCEIKACVKTYHYHCGVQDKAKYIENMSRGIYKLYCKNHSGNDERDEEDEERESKSRGKVEIDQQQLTQQQLNGN
# B2: M125A (protein, UniProt Q8IWS0 2-365, looked up, variant M125A)
# PHD finger protein 6: B1 PHD finger protein 6 with A81C, M124A
# B3: R129A (protein, UniProt Q8IWS0 2-365, looked up, variant R129A)
# PHD finger protein 6: B1 PHD finger protein 6 with A81C, R128A
# B4: PHF6 WT: PHF6 WT expressed as GST fusion protein in E. coli Rosetta (DE3) cells (protein)
# chain: MSSSVEQKKGPTRQRKCGFCKSNRDKECGQLLISENQKVAAHHKCMLFSSALVSSHSDNESLGGFSIEDVQKEIKRGTKLMCSLCHCPGATIGCDVKTCHRTYHYHCALHDKAQIREKPSQGIYMVYCRKHKKTAHNSEADLEESFNEHELEPSSPKSKKKSRKGRPRKTNFKGLSEDTRSTSSHGTDEMESSSYRDRSPHRSSPSDTRPKCGFCHVGEEENEARGKLHIFNAKKAAAHYKCMLFSSGTVQLTTTSRAEFGDFDIKTVLQEIKRGKRMKCTLCSQPGATIGCEIKACVKTYHYHCGVQDKAKYIENMSRGIYKLYCKNHSGNDERDEEDEERESKSRGKVEIDQQQLTQQQLNGN
# modifications: labeled with the dye NT-647 (Cy5), in the MST only; left off: GST, end not stated, kept
# B5: E223S: H2BK12Ac unrecognizable MT of extended PHD2 (protein)
# chain: B4 chain with E223S
# modifications: labeled with the dye NT-647 (Cy5), in the MST only; left off: GST, end not stated, kept
# What was measured:
# [1] = target: GST-PHF6 WT (UniProt Q8IWS0); assay: MST
# [2] = test system: H2BK120 of H2B WT-containing mono-nucleosomes; assay: In vitro ubiquitination assay, H2B-Flag WT mono-nucleosomes; type: biochemical; conditions: GST-PHF6 WT/MTs as E3; E1, E2, ubiquitin, 50 μM ZnCl2; 37°C, 1 h
fold higher affinity than for the H2B WT peptide [1] [fold],Molecule,E3 ubiquitin ligase activity for H2BK120 [2]
5,H2B peptide (1:20) with K12Ac modification,
,B1,neither C82A (functional activity dead MT of extended PHD1 by disrupting Zinc ion capturing) nor E223S (H2BK12Ac unrecognizable MT of extended PHD2) were able to ubiquitinate H2BK120
,B2,indispensable for E3 ligase activity of PHF6
,B3,indispensable for E3 ligase activity of PHF6
,B4,able to ubiquitinate H2BK120
,B5,neither C82A (functional activity dead MT of extended PHD1 by disrupting Zinc ion capturing) nor E223S (H2BK12Ac unrecognizable MT of extended PHD2) were able to ubiquitinate H2BK120
